Measured values from the nanobody polyreactivity screen of Harvey et al. (2022).

Assay: yeast display, Sf9 membrane polyspecificity reagent, FACS + sequencing; frameworks hold sequencing errors
In short: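 A synthetic nanobody library was expressed on Saccharomyces cerevisiae BJ5465 by galactose induction for 36–48 hours. The library was stained for 1 hour at 4 °C with 10% biotinylated, detergent-solubilized Sf9 membrane reagent and enriched with streptavidin microbeads before FACS. Low and high (top ~1%) gates were set on anti-HA fluorescence for expression and streptavidin fluorescence for reagent binding, and each polyreactivity label reflects the gate of origin.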

Sequence: QVQLVESGGGLVQAGGSLRLSCAASGSIFKYYAMGWYRQAPGKERELVAAISTGGTTNYADYVKGRFTISRDNAKNTVYLQMNSLKPEDTAVYYCNRDYLVRSRYKYYYWGQGTQVTVSS
- polyreactivity (PSR sort gate): low polyreactivity

Sequence: QVKLLESVGGLVQAGGSLRLSCMASGSILGDRMSWYRQPPGKEHELVATIYDGGITYYADSMKGRFTISRDNAKNTVYLQMNSLRPEDTAVYYCGASLEGYRYHVYCGQGTQVTVSS
- polyreactivity (PSR sort gate): low polyreactivity

Sequence: QDQLVESGGGLVQAGGSLRLSCAASGRTFTSNAMGRYRQAPGKERELVAAINFRGDSTYYADSVKGRFTISRDNAKNTVYLQMNSLKPEDSAVYYCAAVGGRSSYRLDYWGQGTQVTVSA
- polyreactivity (PSR sort gate): low polyreactivity

Sequence: QVQLVESGGGLVQAGGSLRLSCAASGITFYVNAMGWYRQAPGKERELVAAISRSGGSTYYADSVKGRFTISRDNAKNTVYLQMNSLKPEDTAVYYCNKEDYGLYPYYVSVGYDYWGQGTQVTVSS
- polyreactivity (PSR sort gate): low polyreactivity

Sequence: QVQLVESGGGLVQAGGSLRLSCAASGSIILHNAMGWYRQAPGKERELVAGITGSGGSTYYADSVKGRFTISRDNAMNTVYLQMNSLKPEDTAVYYCAAGSRSRYYRYVYYKYVTMDYWGQGTQVTVSS
- polyreactivity (PSR sort gate): high polyreactivity

Sequence: QVQLVESGGGLVQAGGSLRLSCAASRYIFVRYAMGWYRQAPGKERELVAPNNSSGGRTYYAHSVKGRFTISRDNAKNTVYLQMNSLKQEDTAVYYCAAYGYYRSGYRALEGYWGQGTQVTVSS
- polyreactivity (PSR sort gate): high polyreactivity

Sequence: QVQLVESGGGLVQAGGSLRLSWAASGRIFGRYAMGWYRQAPGKERELVAAISYSGGSTYYADSVKGRFTISRDNAKNTVYLQMNSLKPEDTAVFYCNRYPTYGRTSYVTYYYWGQGTQVTVSS
- polyreactivity (PSR sort gate): high polyreactivity

Sequence: QVQLVESGGGLVQAGGSLRLSCAASGSTFRANAMGWYRQAPGKERELVAAISSGGSTYYADSVKGRFTISRDNAKNTVYLQMNSLKPEDTAVYYCAAVTVKYDESGIYYSDDDYWGQGTQVTVSS
- polyreactivity (PSR sort gate): high polyreactivity

Sequence: QVQLVESGGGLVQAGCSLRLSCAASGFTFYYNAMGWYRQAPGKERDLVAAISISGASTYYADSVKGRFTISRDNAKNTVYLQMNSLKPEDTAVFYCAKRTKGYTYHHEYGYWGQGTQVTVSS
- polyreactivity (PSR sort gate): low polyreactivity

Sequence: QVQLVESGGGLDQAGGSLRLSCAASGNTFFWPNAMGWYRQAPGKERELFAGISYRGASTYYADSVKGRFTISRDNAKNTVYLQMNSLKPEDTAVYYCAADNTPRGRRQNRDMYYWGQGTQVTVSS
- polyreactivity (PSR sort gate): high polyreactivity

Sequence: QVQLVESRGGLVQAGGSLRLSCAASGSIFYRYAMGWYRPAPWKERELVAAIRRGGSTNYADSVKGRFTISRDNAKNTVYLQMNSLKPEDTAVYYCAAGRFTYAAQRYEYWGQGTQVTVSS
- polyreactivity (PSR sort gate): high polyreactivity

Sequence: QVQLVESGGGLVQAGGSLRLSCAASGSIFYDNAMGWYRQAPGKERELVATIRGGGNTYYADSVKGRFTISRDNAKNTVYLQMNSLKPEDTAVYYCAKQSDFPGVPLVYGVYGYDYWGQGTQVTVSS
- polyreactivity (PSR sort gate): low polyreactivity

Sequence: QVQLVESGGGLVQAGGSHRLSCAASGRTFPGNAMGWYRQAPGKERDLVAAITSSGDTDYADSVKGRFKISRDNAKNTVDLQMNSLKTEDRAVYYCAKGYSYGRPWDIYYYWGHGTQVTVSS
- polyreactivity (PSR sort gate): low polyreactivity

Sequence: QVQLVESGGGLVQAGGSLRLSCASSGRTFQVNAMGWYRQAPGKERELVAAISASDGSTYADSVKGRFTISRDNAKNTVYLQMNSLKPEDTAVYYCNKAAYGGHRTSEQVGWVYLYDYWGQGTQVTVSS
- polyreactivity (PSR sort gate): low polyreactivity

Sequence: QVQLVESGGGIVQAGGRLRLSCAASGRIFDDNSMGWYRKAPGKETELVATISSSGVSTSYADSVKGRFTISRDNAKNTVYFQMNSLNPEYTAVYFCNAGYRLRYKFDYWGQGTQVTVAS
- polyreactivity (PSR sort gate): low polyreactivity

Sequence: QVQLVESGGGLVQAGGSLRLSCAASGSTIYGYAMGWDRQAPGKERELVAAISYRGGSTYYADSVKGRFTISRDNAKNTVYLQMNSLKPEDTAVYYCAALGDDATSYGYWGQGTQVTVSS
- polyreactivity (PSR sort gate): high polyreactivity

Sequence: QVQLVESGGGLVQAGGSLRLSCAASGITFRWNAMGWYRPAPGKARELVAAITYRGGSTHYADSVKGRFTISRDNGKNSVYIQMNSLKPEDTAVYYCAVRRWPRYRWSDYWVQGTQVTVSS
- polyreactivity (PSR sort gate): low polyreactivity

Sequence: QVQLEESVGGLVQAGGSLRLICAASGSTFVYNAMGWYRPAPGTERELVAAISSGGSTDYADSVKGRFTISRDNAKNTVYLQMNSLKPEDTAVYYCAARPDYRYHYWGQGTQVTVSS
- polyreactivity (PSR sort gate): high polyreactivity

Sequence: QDQLVESGGGLVQAGCSLRLSCAASGFIFPNYAMGWYRQAPGKERELVAAISTDGSTNYADSVKGRFTISRDNAKTTVYLQMNSLKTEDTAVYYCAKYGRVKPQRYDYDYWGQGTQVTVSS
- polyreactivity (PSR sort gate): high polyreactivity

Sequence: QVQLVESGGGLVQAGGSLRLSCAASGCIFRYYAKGWYRQPPGKERELVPVISSNGARTSYADSVKGRFTISRDNATYTVYLQMNSLKPEDTAVYYCNARAWSRFPPVGHDDWGQGTQVTVSS
- polyreactivity (PSR sort gate): high polyreactivity

Sequence: QVQLVESGGGLVQAGGSLRLSCAASGSIFRWYDMGWYRQAPGKERELVAVISKRGGSTYYADSVKGRFTISRDNAKNTVYLQMNSLKPEDTAVYYCAKRYERWQLARLDYWGQGTQVTVSS
- polyreactivity (PSR sort gate): high polyreactivity

Sequence: QVQLVESGGGLVQAGGSLRLSCAASGRTFTGYAMGWYRQAPGKERELVAAISSRVGSTYYADSVKGRFTISRDNAKNTVYLQMNSLKPEDTAVYYCAKDSQSYTREAYYYWGQGTQVTVSS
- polyreactivity (PSR sort gate): low polyreactivity

Sequence: QVQLVESGGGLVQAGGSLRLSCAASGSTLYQYAMGWYRQAPGKERELVAAITKSGGRTYYADSVKGRFTISRDNAKNTVYLQMNSLKPEDTAVYYCNVVRGSYSSGGDYWGQGTQVTVSA
- polyreactivity (PSR sort gate): high polyreactivity

Sequence: QVQLVESGGGLVQAGGSLRLSCAASGSTFWANAMGWYRPAPGKERELVAGITWNAGSTYYADSVKGRFTISRDNAKNTVYLQMNSLKPEDTAVYYCAAYYHFQGWGPGYNSWGQGTQVTVSS
- polyreactivity (PSR sort gate): low polyreactivity

Sequence: QVQIVESGGGLVQAGGSLRLSCAASGRIFYGYAMGWYRQAPGKEREFVARINVSGTSTFYADSVKGRFTISRDNAKNTVYLQMNSLKPEDTAVYYCAARGLPSNYYYYVHGYIMDYWGQGTQVTVSS
- polyreactivity (PSR sort gate): low polyreactivity

Sequence: QVQHVESGGALVKAGGSLRIRCAASGITFSKYAMGWYRQAPGKEMELVAAITRSGGSTYYADSVKGRFTISRDNGKNTVYLQMNSLKPEDTAVYSCIARGYFTGGDGGSGYWGQVTQVTVSS
- polyreactivity (PSR sort gate): high polyreactivity

Sequence: QVQLVESGGGLVQAGGSLRLSCAASGLTFSYYAMGWYRQAPGKERELVAAISITGSTNYADSVKGRFTISRDNAKNTVYLQMNSLKPEDTAVYYCAARRSLSVLPYYYWGQGTQVTVSS
- polyreactivity (PSR sort gate): high polyreactivity

Sequence: QVQLVESGGGLLQAGGSLRLSCAASGSIFGVNAMGWYIQAPGKERELVASITGGDSTNYADSVKGRFTISRDNAKNTVYLQINSLKTEDTAVYYCNARVADAWASGYDYWGQGTQVTVSS
- polyreactivity (PSR sort gate): low polyreactivity

Sequence: QVQLVESGGGLLQAGGSLRLSCAASGRTFVYYAMGWYRPAPGKERELVAAITSSGSRTYYADSVKGRFTISRDNAKNTVYLQMNSLKPEDTAVYYCAADYVAHGDYRVLYDYWGQGTQVTVSS
- polyreactivity (PSR sort gate): low polyreactivity

Sequence: QVQLVESGGGLVQAGGSLRLSCAASGIIFQYYAMGWYRQAPGKERELVAAINSGTTTYYADSVKGRFTITRDNAKNTVYLQMNSLKPEDTAVYYWNKDWHSQDFSAYNSYDYWGQGTQVTVSS
- polyreactivity (PSR sort gate): low polyreactivity

Sequence: QVQLQESGGGLVQAGGSLRLSCASSGYISQSSVMGWYRQAPGKEREFVASISYGATTYYADSVKGRFTISRDNAKNTVYLQTNSPKPEDTAVYYCAVWVKRGFSHRYWGQGTQVTVSS
- polyreactivity (PSR sort gate): high polyreactivity

Sequence: QVQLVESGGGLVQAGGSLRLSCAASGRTFKYNAMGWYRQAPGKERELVAVIRYSGGTTYYADSVKGRFTISRDNAKNTVYLQMNSLKPEDTAVYYCARGFTYQYSSFYYWGQGTQVTVSS
- polyreactivity (PSR sort gate): low polyreactivity

Sequence: QVQLVESGGGLVQAGGSLRLSCAASGRTLWSYTMGWYRQAPGKERELVARITIGGSTNYADSVKGRFTISRDNAKNTVYLQMNSLKPEDTAVYYCNARASYSYGSYLSKSYGFDYWGQGTQVTVSS
- polyreactivity (PSR sort gate): high polyreactivity

Sequence: QVQLVESVRGLVQAGGTLRLSCAPSGGIFWVYAMGWYRQAPGKERELVAAISNSDTSTSYADSVKGRFTISRVNAKNTVYLQMNSLKPEDTAVYSCNADSPSLSGDYWGQGTQVTVSS
- polyreactivity (PSR sort gate): low polyreactivity

Sequence: QVQIVESGAGLVHAGGSLRISCAASGRIFWIYAMGWYRQAPGKESELVATITGSGGSTYYADSVKGRFTISRDNAKKTVYLQMNSLKPEVTAVYYCAARYPVSGGYDYWGQGTQVTLSS
- polyreactivity (PSR sort gate): low polyreactivity

Sequence: QVQLVESGGGLVQAGGSLRLSCAASGRIVWGYAMGWYTPAPGKERDLVATITRGGSTNYADSVKGRFTISRDNAKNTVYLQMNSLKPEDTAVYYCARDWGKSEYDYWGQGTQVTVSS
- polyreactivity (PSR sort gate): high polyreactivity

Sequence: QVQLVESGGGLVQAGGSLRLSCAASGITFSRNVMGWSRQAPGKERELVAAISRSGGRTYYADSVKGRFTISRDNAMYTVYLQMNRLKPEDTAVYYCNRDIGGTSVLDDYWGQGNQVTVSS
- polyreactivity (PSR sort gate): low polyreactivity

Sequence: QVQLVESGGGLVQAGGSLRLSCAASGFSFSRYAMGWYRQAPGKEREFVASITRRGGSTYYADSVKGRFTISRDNAKNTVYLQMNSLKPEDTAVYYCNAGYTWGRFEYWGQGTQVTVSS
- polyreactivity (PSR sort gate): high polyreactivity

Sequence: QVQLVESGGGLVQAGGSLRLSCAASGSTFNSYVMGWYRQAPGKERELVAAITSSGSTYYADSVKGRFTISRDNAKNTVYLQMNSLKPEDTAVYYCNAQDAWEWQGVWVGARDDYDYWGQGTQVTVSS
- polyreactivity (PSR sort gate): low polyreactivity

Sequence: QVQLVESGGGLVQAGGSLRLSCAASGLTIFVYAMGWYRQAPGKERELVAAISDSGGSTYYADSVKGRFTISRDNAKNTVYLQMNSLKPEDSAVYYCAGNSSTYPSDDSYDYWGQGTQVTVSS
- polyreactivity (PSR sort gate): low polyreactivity

Sequence: QVQLVESGGGLVQAGGSLRLSCAASGSIFGYYAMGWYRQAPGKERELVAAIRWSDGSTYYADSVKGRFTISRDNAKNTVYLQMNSLKPEDTAVYYCAAETGWLYDYWGQGTQVTVSS
- polyreactivity (PSR sort gate): high polyreactivity

Sequence: QVQLVESGGGLVQAGGSLRLSCAASGSIFTIYAMGWYRQAPGKERELVATITGGGGSTYYADSVKGRFTISRDNAKNTVYLQMNSLKPEDTAVYDCAADSPGWTYTSRSYDYWGQGTQVTVSS
- polyreactivity (PSR sort gate): low polyreactivity

Sequence: QVQLVESGGGLVQAGGSLRLSCAASGFIFRRYAMGWYRQAPGKERELVAAISYNVVSTYYADSVKGRFTISRDNAKNTVYLQLNSLKPEVTAVYYCNTASSYRSFRYNYWGQGTQVTVSS
- polyreactivity (PSR sort gate): high polyreactivity
